Assay results taken from patent US20130058937A1 (Hoffmann-La Roche, published 2013).

B1: 2+1 IgG Crossfab (N-terminal); VL/VH exchange (MCSP (LC007)/huCD3) (bispecific antibody)
chain 1: DIQMTQSPSSLSASVGDRVTITCRASQDIRNYLNWYQQKPGKAPKLLIYYTSRLESGVPSRFSGSGSGTDYTLTISSLQPEDFATYYCQQGNTLPWTFGQGTKVEIKSSASTKGPSVFPLAPSSKSTSGGTAALGCLVKDYFPEPVTVSWNSGALTSGVHTFPAVLQSSGLYSLSSVVTVPSSSLGTQTYICNVNHKPSNTKVDKKVEPKSCGGGGSGGGGSEVQLQESGPGLVKPSQSLSLTCSVTGYSITSGYYWNWIRQFPGNKLEWMGYITYDGSNNYNPSLKNRISITRDTSKNQFFLKLNSVTTEDTATYYCADFDYWGQGTTLTVSSASTKGPSVFPLAPSSKSTSGGTAALGCLVKDYFPEPVTVSWNSGALTSGVHTFPAVLQSSGLYSLSSVVTVPSSSLGTQTYICNVNHKPSNTKVDKKVEPKSCDKTHTCPPCPAPEAAGGPSVFLFPPKPKDTLMISRTPEVTCVVVDVSHEDPEVKFNWYVDGVEVHNAKTKPREEQYNSTYRVVSVLTVLHQDWLNGKEYKCKVSNKALGAPIEKTISKAKGQPREPQVCTLPPSRDELTKNQVSLSCAVKGFYPSDIAVEWESNGQPENNYKTTPPVLDSDGSFFLVSKLTVDKSRWQQGNVFSCSVMHEALHNHYTQKSLSLSPGK
chain 2: EVQLVESGGGLVQPGGSLRLSCAASGYSFTGYTMNWVRQAPGKGLEWVALINPYKGVSTYNQKFKDRFTISVDKSKNTAYLQMNSLRAEDTAVYYCARSGYYGDSDWYFDVWGQGTLVTVSSASVAAPSVFIFPPSDEQLKSGTASVVCLLNNFYPREAKVQWKVDNALQSGNSQESVTEQDSKDSTYSLSSTLTLSKADYEKHKVYACEVTHQGLSSPVTKSFNRGEC
chain 3: DIVLTQSPSSLSASLGDRVTISCSASQGIRNYLNWYQQRPDGTVKLLIYYTSSLHSGVPSRFSGSGSGTDYSLTISNLEPEDIATYYCQQYSKLPWTFGGGTKLEIKRTVAAPSVFIFPPSDEQLKSGTASVVCLLNNFYPREAKVQWKVDNALQSGNSQESVTEQDSKDSTYSLSSTLTLSKADYEKHKVYACEVTHQGLSSPVTKSFNRGEC
chain 4: not shown
notes: Two MCSP Fabs, one CD3 Crossfab fused to the N-terminus of one Fab; also called anti-MCSP/anti-huCD3; CD3-MCSP 2+1 IgG Crossfab (N-terminal)
B2: 2+1 IgG Crossfab (N-terminal), inverted; CL/CH1 exchange (MCSP (LC007)/huCD3) (bispecific antibody)
chain 1: B1 chain 3
chain 2: DIQMTQSPSSLSASVGDRVTITCRASQDIRNYLNWYQQKPGKAPKLLIYYTSRLESGVPSRFSGSGSGTDYTLTISSLQPEDFATYYCQQGNTLPWTFGQGTKVEIKSSASTKGPSVFPLAPSSKSTSGGTAALGCLVKDYFPEPVTVSWNSGALTSGVHTFPAVLQSSGLYSLSSVVTVPSSSLGTQTYICNVNHKPSNTKVDKKVEPKSC
chain 3: EVQLQESGPGLVKPSQSLSLTCSVTGYSITSGYYWNWIRQFPGNKLEWMGYITYDGSNNYNPSLKNRISITRDTSKNQFFLKLNSVTTEDTATYYCADFDYWGQGTTLTVSSASTKGPSVFPLAPSSKSTSGGTAALGCLVKDYFPEPVTVSWNSGALTSGVHTFPAVLQSSGLYSLSSVVTVPSSSLGTQTYICNVNHKPSNTKVDKKVEPKSCDKTHTCPPCPAPEAAGGPSVFLFPPKPKDTLMISRTPEVTCVVVDVSHEDPEVKFNWYVDGVEVHNAKTKPREEQYNSTYRVVSVLTVLHQDWLNGKEYKCKVSNKALGAPIEKTISKAKGQPREPQVCTLPPSRDELTKNQVSLSCAVKGFYPSDIAVEWESNGQPENNYKTTPPVLDSDGSFFLVSKLTVDKSRWQQGNVFSCSVMHEALHNHYTQKSLSLSPGK
chain 4: not shown
notes: also called the inverted construct; CD3/MCSP 2+1 IgG Crossfab (N-terminal), inverted
B3: CD3-MCSP 1+1 CrossMab; CL/CH1 exchange (MCSP (LC007)/huCD3) (bispecific antibody)
chain 1: B1 chain 3
chain 2: B2 chain 2
chain 3: not shown
chain 4: B2 chain 3
B4: CD3-MCSP 1+1 IgG Crossfab (N-terminal) (SEQ ID NOs 1, 3, 4, 86) (bispecific antibody)
chain 1: B1 chain 1
chain 2: B1 chain 2
chain 3: B1 chain 3
chain 4: not shown

Key:
[1] = target: T1, human MCSP (Melanoma-associated Chondroitin Sulfate Proteoglycan), expressed on tumor cells (human, UniProt Q6UVK1 30-2322); experiment: cell-based or functional assay
[2] = target: T2, human CD3, expressed by Jurkat cells (human, UniProt P07766 23-207); experiment: FACS on Jurkat cells, FITC/PE anti-human Fc secondary
T2 construct: whole, on cells; The assay presents the whole CD3 complex on Jurkat T cells; also called human CD3 on cells; huCD3
Procedure: Binding of the different bispecific constructs to CD3 on Jurkat (ATCC #TIB-152) cells, and the respective tumor antigen MCSP on WM266-4 cells or CEA on LS174-T cells, was determined by FACS. Briefly, cells were harvested, counted and checked for viability. 0.15-0.2 million cells per well were plated in a round-bottom 96-well plate and incubated with the indicated concentration of the bispecific constructs and controls for 30 min at 4° C. For a better comparison, the constructs were normalized to same molarity. Cells were washed with PBS containing 0.1% BSA once. After incubation with a FITC- or PE-conjugated secondary antibody for 30 min at 4° C., bound constructs were detected using a FACSCantoII (Software FACS Diva). A FITC- or PE-conjugated AffiniPure F(ab′)2 Fragment goat anti-human IgG Fcγ Fragment Specific (Jackson Immuno Research Lab #109-096-098/working solution 1:20, or #109-116-170/working solution 1:80, respectively) was used. […] EC50 values were calculated using the GraphPad Prism 5 software.
As a control, the equivalent maximum concentration of the corresponding IgGs and the background staining due to the labeled 2ndary antibody (goat anti-human FITC-conjugated AffiniPure F(ab′)2 Fragment, Fcγ Fragment-specific, Jackson Immuno Research Lab #109-096-098) were assessed as well. […]

[3] = target: T1, human MCSP (Melanoma-associated …); experiment: FACS on WM266-4 cells, FITC/PE anti-human Fc secondary
Procedure: Binding of the different bispecific constructs to CD3 on Jurkat (ATCC #TIB-152) cells, and the respective tumor antigen MCSP on WM266-4 cells or CEA on LS174-T cells, was determined by FACS. Briefly, cells were harvested, counted and checked for viability. 0.15-0.2 million cells per well were plated in a round-bottom 96-well plate and incubated with the indicated concentration of the bispecific constructs and controls for 30 min at 4° C. For a better comparison, the constructs were normalized to same molarity. Cells were washed with PBS containing 0.1% BSA once. After incubation with a FITC- or PE-conjugated secondary antibody for 30 min at 4° C., bound constructs were detected using a FACSCantoII (Software FACS Diva). A FITC- or PE-conjugated AffiniPure F(ab′)2 Fragment goat anti-human IgG Fcγ Fragment Specific (Jackson Immuno Research Lab #109-096-098/working solution 1:20, or #109-116-170/working solution 1:80, respectively) was used. Unless otherwise indicated, cells were fixed with 100 μl/well fixation buffer (BD #554655) for 15 min at 4° C. in the dark, centrifuged for 6 min at 400×g and kept in 200 μl/well PBS containing 0.1% BSA until analysis. EC50 values were calculated using the GraphPad Prism 5 software.
While binding of both construct to MCSP on cells was comparably good, the binding of the “inverted” construct to CD3 was reduced compared to the other construct.

T1 sequence (Q6UVK1 30-2322): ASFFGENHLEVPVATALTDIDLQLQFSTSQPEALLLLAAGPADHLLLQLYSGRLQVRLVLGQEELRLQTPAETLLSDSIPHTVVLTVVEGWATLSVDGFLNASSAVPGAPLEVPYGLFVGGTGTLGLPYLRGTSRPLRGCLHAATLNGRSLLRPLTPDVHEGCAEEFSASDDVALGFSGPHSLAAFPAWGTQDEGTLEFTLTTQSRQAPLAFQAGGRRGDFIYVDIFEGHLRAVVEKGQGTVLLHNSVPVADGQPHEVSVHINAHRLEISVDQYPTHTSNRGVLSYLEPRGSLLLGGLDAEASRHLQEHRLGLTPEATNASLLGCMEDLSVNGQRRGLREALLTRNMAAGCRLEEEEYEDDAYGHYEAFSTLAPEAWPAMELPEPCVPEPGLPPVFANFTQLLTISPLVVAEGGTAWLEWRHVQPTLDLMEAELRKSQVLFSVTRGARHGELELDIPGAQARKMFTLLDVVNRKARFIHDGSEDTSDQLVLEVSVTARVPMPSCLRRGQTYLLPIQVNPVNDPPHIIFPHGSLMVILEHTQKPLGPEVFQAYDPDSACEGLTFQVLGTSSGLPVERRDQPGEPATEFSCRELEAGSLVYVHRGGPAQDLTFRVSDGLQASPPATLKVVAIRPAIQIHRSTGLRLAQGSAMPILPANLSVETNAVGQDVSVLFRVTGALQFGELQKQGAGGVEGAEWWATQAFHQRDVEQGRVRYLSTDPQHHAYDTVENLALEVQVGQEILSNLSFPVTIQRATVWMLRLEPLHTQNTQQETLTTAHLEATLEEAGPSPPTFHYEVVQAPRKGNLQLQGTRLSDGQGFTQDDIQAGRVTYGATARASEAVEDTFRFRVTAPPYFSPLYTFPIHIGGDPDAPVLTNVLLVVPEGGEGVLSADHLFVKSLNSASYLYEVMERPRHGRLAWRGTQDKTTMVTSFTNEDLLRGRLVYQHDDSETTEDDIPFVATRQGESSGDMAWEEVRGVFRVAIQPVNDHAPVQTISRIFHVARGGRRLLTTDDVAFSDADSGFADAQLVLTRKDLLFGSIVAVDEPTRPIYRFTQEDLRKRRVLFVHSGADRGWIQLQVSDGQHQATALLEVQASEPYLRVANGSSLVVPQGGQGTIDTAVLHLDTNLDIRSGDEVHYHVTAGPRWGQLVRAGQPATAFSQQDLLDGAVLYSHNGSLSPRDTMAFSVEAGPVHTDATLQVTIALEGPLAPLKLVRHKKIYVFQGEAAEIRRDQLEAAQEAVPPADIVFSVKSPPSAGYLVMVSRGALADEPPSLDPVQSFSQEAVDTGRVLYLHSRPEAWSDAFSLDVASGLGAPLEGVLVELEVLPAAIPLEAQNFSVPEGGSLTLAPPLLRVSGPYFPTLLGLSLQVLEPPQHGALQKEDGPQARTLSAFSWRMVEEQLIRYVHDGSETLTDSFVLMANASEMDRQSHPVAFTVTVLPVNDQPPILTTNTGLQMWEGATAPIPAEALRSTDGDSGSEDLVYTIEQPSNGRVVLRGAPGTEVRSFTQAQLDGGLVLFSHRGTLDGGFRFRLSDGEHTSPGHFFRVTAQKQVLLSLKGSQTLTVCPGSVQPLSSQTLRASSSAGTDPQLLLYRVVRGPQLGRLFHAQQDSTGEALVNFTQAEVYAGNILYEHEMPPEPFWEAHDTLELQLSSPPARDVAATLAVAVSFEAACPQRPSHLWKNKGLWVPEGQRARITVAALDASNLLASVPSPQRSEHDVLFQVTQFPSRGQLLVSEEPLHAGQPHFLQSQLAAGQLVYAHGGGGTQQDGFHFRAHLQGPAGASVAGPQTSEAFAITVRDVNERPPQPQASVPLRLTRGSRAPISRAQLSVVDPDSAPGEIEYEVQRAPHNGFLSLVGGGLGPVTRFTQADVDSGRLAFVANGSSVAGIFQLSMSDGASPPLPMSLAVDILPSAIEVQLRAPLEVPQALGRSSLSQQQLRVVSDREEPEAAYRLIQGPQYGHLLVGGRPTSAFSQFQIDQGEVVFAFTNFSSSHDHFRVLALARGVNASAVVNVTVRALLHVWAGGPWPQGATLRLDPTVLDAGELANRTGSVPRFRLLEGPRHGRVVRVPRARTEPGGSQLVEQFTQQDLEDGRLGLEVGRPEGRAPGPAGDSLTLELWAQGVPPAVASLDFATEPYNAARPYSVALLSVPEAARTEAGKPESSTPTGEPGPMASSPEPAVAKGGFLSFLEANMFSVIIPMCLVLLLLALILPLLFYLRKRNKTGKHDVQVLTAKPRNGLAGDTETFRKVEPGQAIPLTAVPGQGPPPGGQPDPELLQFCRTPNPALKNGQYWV
T2 sequence (P07766 23-207): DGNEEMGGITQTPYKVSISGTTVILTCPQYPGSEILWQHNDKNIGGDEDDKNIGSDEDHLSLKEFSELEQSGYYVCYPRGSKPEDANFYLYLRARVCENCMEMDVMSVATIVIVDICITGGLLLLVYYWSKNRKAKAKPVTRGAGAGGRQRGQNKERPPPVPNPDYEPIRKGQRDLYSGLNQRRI

Binder	EC50 of killing (LDH release) of MV-3 cells, human PBMCs, E:T 10:1, 21 h [1]	EC50 of killing (LDH release) of WM266-4 cells, human PBMCs, E:T 10:1, 21 h [1]	EC50 [2]	EC50 [3]
B1	0.0092 nM	0.0331 nM	1.66 nM	0.95 nM
B2	–	–	6.1 nM	0.57 nM
B3	0.0884 nM	0.0539 nM	–	–
B4	0.0409 nM	0.0284 nM	–	–
